Legend:
[1] = molecular target: T1, synthetic gamma-chain peptide TYS(K)AST with K changed to serine
T1 chain: TYSSAST

[2] = molecular target: T2, WT-Fbg (human fibrinogen, SigmaAldrich), P02671
T2 chain 1: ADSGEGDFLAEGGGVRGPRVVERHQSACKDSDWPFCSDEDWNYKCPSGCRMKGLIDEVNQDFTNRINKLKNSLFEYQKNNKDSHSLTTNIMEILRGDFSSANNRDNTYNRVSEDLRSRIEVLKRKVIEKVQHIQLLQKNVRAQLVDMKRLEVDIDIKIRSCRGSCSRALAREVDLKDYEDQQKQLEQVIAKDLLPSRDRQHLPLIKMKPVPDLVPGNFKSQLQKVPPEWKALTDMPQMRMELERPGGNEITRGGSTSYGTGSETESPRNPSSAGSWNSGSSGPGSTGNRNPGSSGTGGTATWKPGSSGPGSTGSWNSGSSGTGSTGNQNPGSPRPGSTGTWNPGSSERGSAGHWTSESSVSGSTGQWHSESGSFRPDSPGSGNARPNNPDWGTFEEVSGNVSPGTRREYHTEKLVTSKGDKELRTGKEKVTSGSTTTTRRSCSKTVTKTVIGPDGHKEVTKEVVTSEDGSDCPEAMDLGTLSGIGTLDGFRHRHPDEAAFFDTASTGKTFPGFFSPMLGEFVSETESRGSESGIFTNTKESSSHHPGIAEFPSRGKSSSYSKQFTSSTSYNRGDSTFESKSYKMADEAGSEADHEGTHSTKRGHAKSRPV
T2 chain 2: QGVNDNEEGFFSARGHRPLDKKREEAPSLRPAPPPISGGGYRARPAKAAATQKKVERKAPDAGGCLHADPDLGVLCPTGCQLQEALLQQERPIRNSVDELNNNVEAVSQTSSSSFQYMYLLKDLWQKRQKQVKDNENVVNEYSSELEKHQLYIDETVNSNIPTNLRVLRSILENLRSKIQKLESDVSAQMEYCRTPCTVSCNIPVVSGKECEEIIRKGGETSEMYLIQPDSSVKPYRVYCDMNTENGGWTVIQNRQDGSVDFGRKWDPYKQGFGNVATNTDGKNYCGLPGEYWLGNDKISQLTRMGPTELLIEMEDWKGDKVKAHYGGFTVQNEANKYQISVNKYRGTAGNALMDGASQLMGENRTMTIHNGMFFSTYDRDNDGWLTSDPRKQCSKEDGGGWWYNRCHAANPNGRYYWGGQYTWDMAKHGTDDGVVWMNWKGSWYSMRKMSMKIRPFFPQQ
T2 chain 3: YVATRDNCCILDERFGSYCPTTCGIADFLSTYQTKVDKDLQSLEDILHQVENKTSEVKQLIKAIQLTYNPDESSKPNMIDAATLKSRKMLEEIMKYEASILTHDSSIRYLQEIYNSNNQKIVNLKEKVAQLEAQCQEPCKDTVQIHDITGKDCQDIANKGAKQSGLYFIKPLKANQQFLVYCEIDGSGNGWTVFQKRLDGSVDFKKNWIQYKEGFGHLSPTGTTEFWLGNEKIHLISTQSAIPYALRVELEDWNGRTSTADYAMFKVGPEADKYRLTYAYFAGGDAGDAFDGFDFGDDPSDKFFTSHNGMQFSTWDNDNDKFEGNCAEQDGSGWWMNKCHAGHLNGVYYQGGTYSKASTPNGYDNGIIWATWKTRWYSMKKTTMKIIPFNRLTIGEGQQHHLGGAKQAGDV

[3] = molecular target: T3, synthetic gamma-chain peptide ATL(K)SRM with K changed to serine
T3 chain: ATLSSRM

[4] = molecular target: T4, synthetic gamma-chain peptide ATW(K)TRW with K changed to serine
T4 chain: ATWSTRW

[5] = molecular target: T5, Ala-rFbg (recombinant fibrinogen, gamma-chain K88A, K111A, K382A, K399A)
T5 chain 1: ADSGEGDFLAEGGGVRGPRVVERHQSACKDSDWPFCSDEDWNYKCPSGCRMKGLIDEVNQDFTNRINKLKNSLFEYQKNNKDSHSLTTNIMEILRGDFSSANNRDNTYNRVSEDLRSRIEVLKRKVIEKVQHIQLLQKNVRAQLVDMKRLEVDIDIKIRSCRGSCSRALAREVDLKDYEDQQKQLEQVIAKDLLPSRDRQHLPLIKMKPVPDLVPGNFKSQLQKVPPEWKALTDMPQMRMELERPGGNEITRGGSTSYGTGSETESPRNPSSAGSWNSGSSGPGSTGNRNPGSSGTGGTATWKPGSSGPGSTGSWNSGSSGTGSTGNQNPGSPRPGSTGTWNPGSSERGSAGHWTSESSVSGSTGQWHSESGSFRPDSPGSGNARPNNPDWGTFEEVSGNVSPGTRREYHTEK
T5 chain 2: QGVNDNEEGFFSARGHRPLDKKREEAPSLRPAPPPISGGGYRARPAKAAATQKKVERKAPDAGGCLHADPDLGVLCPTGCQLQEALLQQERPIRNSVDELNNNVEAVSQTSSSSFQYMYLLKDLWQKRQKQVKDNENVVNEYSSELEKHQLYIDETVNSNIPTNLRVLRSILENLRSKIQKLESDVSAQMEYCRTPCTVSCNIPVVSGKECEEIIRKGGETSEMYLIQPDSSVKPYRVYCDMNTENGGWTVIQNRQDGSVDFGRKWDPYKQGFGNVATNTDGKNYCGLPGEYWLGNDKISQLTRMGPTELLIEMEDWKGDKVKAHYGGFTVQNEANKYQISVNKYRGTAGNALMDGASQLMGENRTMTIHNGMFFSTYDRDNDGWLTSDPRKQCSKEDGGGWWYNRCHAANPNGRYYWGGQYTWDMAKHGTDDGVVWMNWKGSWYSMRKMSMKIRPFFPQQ
T5 chain 3: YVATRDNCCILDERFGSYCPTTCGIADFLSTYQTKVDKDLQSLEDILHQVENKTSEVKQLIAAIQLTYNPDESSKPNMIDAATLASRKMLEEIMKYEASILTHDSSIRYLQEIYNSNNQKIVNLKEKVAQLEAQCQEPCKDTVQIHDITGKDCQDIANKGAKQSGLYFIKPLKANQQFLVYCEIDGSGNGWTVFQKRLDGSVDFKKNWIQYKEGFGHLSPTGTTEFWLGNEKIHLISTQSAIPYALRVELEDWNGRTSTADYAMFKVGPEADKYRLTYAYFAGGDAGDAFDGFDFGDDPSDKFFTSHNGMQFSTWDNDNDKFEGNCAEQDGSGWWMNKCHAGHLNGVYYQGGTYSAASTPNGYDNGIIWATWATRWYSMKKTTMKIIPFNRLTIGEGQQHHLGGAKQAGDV

[6] = molecular target: T6, His-rFbg (recombinant fibrinogen, gamma-chain K88H, K111H, K382H, K399H)
T6 chain 1: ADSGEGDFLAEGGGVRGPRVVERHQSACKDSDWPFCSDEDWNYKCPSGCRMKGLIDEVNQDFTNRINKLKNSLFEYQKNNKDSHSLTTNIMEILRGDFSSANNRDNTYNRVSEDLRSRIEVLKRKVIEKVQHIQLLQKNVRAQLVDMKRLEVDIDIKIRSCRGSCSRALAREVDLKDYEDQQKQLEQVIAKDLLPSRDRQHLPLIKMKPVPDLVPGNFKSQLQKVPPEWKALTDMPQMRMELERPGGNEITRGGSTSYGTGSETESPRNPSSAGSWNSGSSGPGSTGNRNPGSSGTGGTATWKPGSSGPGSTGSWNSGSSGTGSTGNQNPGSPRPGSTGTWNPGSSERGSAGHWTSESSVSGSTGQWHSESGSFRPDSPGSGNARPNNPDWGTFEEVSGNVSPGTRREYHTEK
T6 chain 2: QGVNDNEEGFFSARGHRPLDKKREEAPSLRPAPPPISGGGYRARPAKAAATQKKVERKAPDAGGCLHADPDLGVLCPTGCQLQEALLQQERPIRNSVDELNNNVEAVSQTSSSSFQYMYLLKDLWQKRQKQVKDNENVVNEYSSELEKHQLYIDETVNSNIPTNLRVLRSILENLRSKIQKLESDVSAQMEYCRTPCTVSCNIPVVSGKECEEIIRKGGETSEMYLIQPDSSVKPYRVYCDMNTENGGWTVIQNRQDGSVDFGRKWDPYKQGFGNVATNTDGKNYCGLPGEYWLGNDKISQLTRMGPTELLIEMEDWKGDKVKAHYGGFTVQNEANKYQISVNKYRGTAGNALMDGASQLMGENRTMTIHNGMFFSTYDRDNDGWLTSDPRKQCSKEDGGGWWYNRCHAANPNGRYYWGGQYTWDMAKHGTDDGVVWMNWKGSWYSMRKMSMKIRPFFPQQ
T6 chain 3: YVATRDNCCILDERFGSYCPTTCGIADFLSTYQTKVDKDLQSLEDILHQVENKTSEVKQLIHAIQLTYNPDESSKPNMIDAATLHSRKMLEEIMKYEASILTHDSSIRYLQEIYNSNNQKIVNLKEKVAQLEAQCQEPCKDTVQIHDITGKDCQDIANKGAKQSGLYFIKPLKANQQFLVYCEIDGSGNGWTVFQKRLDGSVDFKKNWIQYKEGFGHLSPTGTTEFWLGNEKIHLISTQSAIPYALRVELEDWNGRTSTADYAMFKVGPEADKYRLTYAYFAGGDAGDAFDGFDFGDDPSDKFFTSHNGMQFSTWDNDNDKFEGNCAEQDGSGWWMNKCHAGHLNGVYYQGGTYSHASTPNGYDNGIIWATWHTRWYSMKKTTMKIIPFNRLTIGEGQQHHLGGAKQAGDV

B1: human plasmin (Merck) (protein)
chain: KVYLSECKTGNGKNYRGTMSKTKNGITCQKWSSTSPHRPRFSPATHPSEGLEENYCRNPDNDPQGPWCYTTDPEKRYDYCDILECEEECMHCSGENYDGKISKTMSGLECQAWDSQSPHAHGYIPSKFPNKNLKKNYCRNPDRELRPWCFTTDPNKRWELCDIPRCTTPPPSSGPTYQCLKGTGENYRGNVAVTVSGHTCQHWSAQTPHTHNRTPENFPCKNLDENYCRNPDGKRAPWCHTTNSQVRWEYCKIPSCDSSPVSTEQLAPTAPPELTPVVQDCYHGDGQSYRGTSSTTTTGKKCQSWSSMTPHRHQKTPENYPNAGLTMNYCRNPDADKGPWCFTTDPSVRWEYCNLKKCSGTEASVVAPPPVVLLPDVETPSEEDCMFGNGKGYRGKRATTVTGTPCQDWAAQEPHRHSIFTPETNPRAGLEKNYCRNPDGDVGGPWCYTTNPRKLYDYCDVPQCAAPSFDCGKPQVEPKKCPGRVVGGCVAHPHSWPWQVSLRTRFGMHFCGGTLISPEWVLTAAHCLEKSPRPSSYKVILGAHQEVNLEPHVQEIEVSRLFLEPTRKDIALLKLSSPAVITDKVIPACLPSPNYVVADRTECFITGWGETQGTFGAGLLKEAQLPVIENKVCNRYEFLNGRVQSTELCAGHLAGGTDSCQGDSGGPLVCFEKDKYILQGVTSWGLGCARPNKPGVYVRVSRFVTWIEGVMRNN
Q: Which results are given for B1?
A: plasmin cleavage efficiency of synthetic peptide, HPLC [1]: Peptide sequences including S instead of K showed a significant reduction in cleavage efficiency compared to the original sequences; plasmin cleavage sites in the gamma-chain, high-resolution ESI-MS after 24 h digest in solution (0.5 U/mL plasmin) [2]: the 4 different cleavage sites K88, K111, K382, K399 in the WT could be detected; plasmin cleavage efficiency of synthetic peptide, HPLC [3]: Peptide sequences including S instead of K showed a significant reduction in cleavage efficiency compared to the original sequences; plasmin cleavage efficiency of synthetic peptide, HPLC [4]: Peptide sequences including S instead of K showed a significant reduction in cleavage efficiency compared to the original sequences; plasmin cleavage analysis of target sites (peptide fragments detected by MS) [5]: Position 382 shows a partial cleavage for the mutants (both cleaved and non-cleaved peptides detected); plasmin cleavage at the mutated gamma-chain sites 88, 111, 382, 399, high-resolution ESI-MS after 24 h digest in solution [5]: no cleavage was detected in either of the two mutants for all 4 mutations; plasmin cleavage analysis of target sites (peptide fragments detected by MS) [6]: Position 382 shows a partial cleavage for the mutants (both cleaved and non-cleaved peptides detected); plasmin cleavage at the mutated gamma-chain sites 88, 111, 382, 399, high-resolution ESI-MS after 24 h digest in solution [6]: no cleavage was detected in either of the two mutants for all 4 mutations

From patent US20260001937A1, “NOVEL RECOMBINANT FIBRINOGEN VARIANTS FOR FIBRIN SEALANTS FOR SURGICAL WOUND CARE” (Julius-Maximilians-Universität Würzburg, priority 2022, published 2026)
